Measured values published in patent US20230074657A1 (SHANGHAI HENLIUS BIOTECH, published 2023).

What was measured:
[1] = molecular target: T1, Recombinant mouse LAG3-Fc fusion protein (mouse, UniProt Q61790 24-442, limits assumed); test: ELISA, plate coated with mouse LAG3-Fc
T1 construct: Bought; not shown: Fc part; not described
T1 sequence (looked up): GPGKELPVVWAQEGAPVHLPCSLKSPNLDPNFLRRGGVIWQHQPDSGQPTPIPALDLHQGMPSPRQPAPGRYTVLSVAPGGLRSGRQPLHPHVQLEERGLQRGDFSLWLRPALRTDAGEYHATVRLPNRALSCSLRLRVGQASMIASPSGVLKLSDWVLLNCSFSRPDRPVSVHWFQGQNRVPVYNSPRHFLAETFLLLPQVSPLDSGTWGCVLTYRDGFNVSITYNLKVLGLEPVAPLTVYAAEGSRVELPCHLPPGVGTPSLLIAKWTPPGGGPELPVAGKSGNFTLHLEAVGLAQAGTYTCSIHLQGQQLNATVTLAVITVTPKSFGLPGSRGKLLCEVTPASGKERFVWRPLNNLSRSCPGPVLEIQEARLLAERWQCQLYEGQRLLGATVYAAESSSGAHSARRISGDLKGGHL
Protocol: The plate is washed 3 times with PBS containing 0.05% Tween 20 (PBST). The plate is blocked with PBS containing 5% skimmed milk for 1 hour at room temperature. […] The plate is washed 3 times with PBST, and 30 μl of 1:2000 diluted horseradish peroxidase-labeled goat anti-human IgG kappa light chain secondary antibody (millipore) is added thereto, and the plate is allowed to stand at room temperature for 1 hour. The plate is washed 6 times with PBST, and TMB is added thereto for color development. The reaction is stopped with 2M H₂SO₄. The plate is read at 450 nm with a microplate reader.

[2] = molecular target: T2, LAG3-Fc recombinant protein (UniProt P18627 23-450); test: ELISA on coated LAG3-Fc, anti-human kappa-HRP
T2 construct: also called LAG3-Fc (Acro); LAG3-Fc protein; not shown: Fc part
T2 sequence (looked up): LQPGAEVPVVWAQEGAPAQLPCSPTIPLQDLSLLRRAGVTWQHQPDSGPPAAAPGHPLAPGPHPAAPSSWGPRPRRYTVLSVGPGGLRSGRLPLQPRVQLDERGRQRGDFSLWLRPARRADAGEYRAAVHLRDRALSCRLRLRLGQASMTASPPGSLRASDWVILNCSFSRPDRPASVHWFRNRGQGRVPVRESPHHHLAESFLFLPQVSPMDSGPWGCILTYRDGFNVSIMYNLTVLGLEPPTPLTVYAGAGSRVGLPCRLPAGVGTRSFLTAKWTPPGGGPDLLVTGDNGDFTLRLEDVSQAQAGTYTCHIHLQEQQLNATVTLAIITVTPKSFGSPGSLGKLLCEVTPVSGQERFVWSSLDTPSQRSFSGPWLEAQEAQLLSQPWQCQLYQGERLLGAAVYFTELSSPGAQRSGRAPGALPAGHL
Protocol: The affinity of the humanized antibody for LAG3 is detected by an ELISA technique. […] The plate is washed 3 times with PBS containing 0.05% Tween 20 (PBST). The plate is blocked with PBS containing 5% skimmed milk for 1 hour at room temperature. […] The plate is washed 3 times with PBST, and 30 μl of 1:4000 diluted horseradish peroxidase-labeled goat anti-human IgG kappa light chain secondary antibody (Millipore) is added thereto, and the plate is allowed to stand at room temperature for 1 hour. The plate is washed 6 times with PBST, and TMB is added thereto for color development. The reaction is stopped with 2M H₂SO₄. The plate is read at 450 nm with a microplate reader.

[3] = molecular target: T3, full-length human LAG3 on the cell surface (transfected CHO-S or Jurkat cells) (human, UniProt P18627 23-525); test: flow cytometry on CHO-S cells expressing full-length human LAG3 [panel 6A]
T3 construct: whole, on cells; also called LAG3 on the cell membrane
T3 sequence (looked up): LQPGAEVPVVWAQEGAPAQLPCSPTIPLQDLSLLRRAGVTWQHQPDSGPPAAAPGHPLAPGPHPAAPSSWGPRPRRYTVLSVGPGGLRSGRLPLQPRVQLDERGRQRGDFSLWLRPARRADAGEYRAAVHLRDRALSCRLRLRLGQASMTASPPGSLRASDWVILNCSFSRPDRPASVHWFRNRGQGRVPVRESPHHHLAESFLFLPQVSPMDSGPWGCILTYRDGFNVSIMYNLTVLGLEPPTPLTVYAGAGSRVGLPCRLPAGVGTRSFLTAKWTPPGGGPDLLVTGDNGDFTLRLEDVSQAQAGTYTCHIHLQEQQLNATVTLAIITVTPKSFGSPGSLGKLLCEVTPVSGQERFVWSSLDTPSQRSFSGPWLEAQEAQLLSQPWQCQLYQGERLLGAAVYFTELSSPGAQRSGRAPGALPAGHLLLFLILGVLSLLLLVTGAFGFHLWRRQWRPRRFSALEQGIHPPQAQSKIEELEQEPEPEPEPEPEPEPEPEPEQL
Protocol: (§1) The binding of the humanized antibodies to LAG3 on the cell surface is determined by a flow cytometry method. The transfected CHO-S or Jurkat cells expressing the full-length human LAG3 gene are taken and washed twice with PBS (2% FBS), and the cell concentration is adjusted to 5×10⁵/100 μl. 1:3 gradient-diluted anti-LAG3 humanized antibody is added, and incubated at 4° C. for 30 min. […] The cells are centrifuged at 500×g for 5 min. The cells are washed twice with PBS (2% FBS). 1:300 diluted goat anti-human IgG Fab-FITC (Thermo Fisher) is added, and incubated at 4° C. for 30 min. The cells are washed twice with PBS (2% FBS). The cells are suspended in 200 μl PBS and analyzed by flow cytometry.

[4] = molecular target: T3, full-length human LAG3 on the cell …; test: flow cytometry on Jurkat cells expressing full-length human LAG3 [panel 6B]
Protocol: as §1

[5] = molecular target: T4, Recombinant cynomolgus monkey LAG3-Fc fusion protein (cynomolgus monkey); test: SPR, cynomolgus monkey LAG3-Fc immobilized on the chip, antibody in flow, 1:1 Langmuir fit
T4 construct: Bought; also called cynomolgus monkey LAG3-Fc protein
Protocol: Surface plasmon resonance (SPR) is used to measure the binding affinity and kinetic constants of the anti-LAG3 humanized antibody for the cynomolgus monkey LAG3 protein. […] The data obtained from the experiments are analyzed using an evaluation software, and the curve is fitted with a 1:1 Langmuir binding model.

[6] = molecular target: T2, LAG3-Fc recombinant protein; test: SPR, LAG3-Fc immobilized on the chip, antibody in flow, 1:1 Langmuir fit
Protocol: Surface plasmon resonance (SPR) is used to measure the binding affinity and kinetic constants of the anti-LAG3 humanized antibody for the LAG3 protein. […] The data obtained from the experiments are analyzed using an evaluation software, and the curve is fitted with a 1:1 Langmuir binding model.

[7] = molecular target: T5, Tag1-LAG3 protein (UniProt P18627 23-450); test: HTRF blocking assay (Cisbio kit): Tag1-LAG3 with Tag2-FGL1 and antibody
T5 construct: also called LAG3 (Cisbio kit)
Protocol: The mixture is reacted at room temperature for 15 minutes, and then 10 μL of pre-mixed anti-Tag1-Tb3+ and anti-Tag2-XL665 are added thereto.

[8] = molecular target: T2, LAG3-Fc recombinant protein; test: flow cytometry blocking assay: antibody premixed with LAG3-Fc (2 µg/ml), binding to MHC II on Raji cells
Protocol: Raji cells are washed twice with PBS (2% FBS), and the cell concentration is adjusted to 2×10⁵/100 μl. […] The mixture is then mixed with the Raji cells and incubated at 4° C. for 60 min. The cells are centrifuged at 500×g for 5 min. The cells are washed twice with PBS (2% FBS). 1:500 diluted goat anti-human IgG-Fc-Alexa Fluor 488 (Jackson) is added, and incubated at 4° C. for 60 min. The cells are washed twice with PBS (2% FBS). The cells are suspended in 200 μl PBS and analyzed by flow cytometry.

[9] = molecular target: T2, LAG3-Fc recombinant protein; test: ELISA blocking assay: antibody mixed with LSECtin, added to coated LAG3-Fc, bound LSECtin detected with anti-His-HRP
Protocol: The plate is washed 3 times with PBS containing 0.05% Tween 20 (PBST). […] The plate is washed 6 times with PBST, and TMB is added thereto for color development. The reaction is stopped with 2M H₂SO₄. The plate is read at 450 nm with a microplate reader.

[10] = molecular target: T3, full-length human LAG3 on the cell …; test: flow cytometry on Jurkat cells expressing full-length human LAG3, anti-mouse IgG-FITC
Protocol: (§2) The transfected Jurkat cells expressing the full-length human LAG3 gene are taken and washed twice with PBS (2% FBS), and the cell concentration is adjusted to 2×10⁵/100 μl. […] The cells are centrifuged at 500×g for 5 min. […] The cells are washed twice with PBS (2% FBS). […] The cells are washed twice with PBS (2% FBS). The cells are suspended in 200 μl PBS and analyzed by flow cytometry.

[11] = molecular target: T3, full-length human LAG3 on the cell …; test: flow cytometry on Jurkat cells expressing full-length human LAG3, anti-human IgG Fab-FITC
Protocol: as §2

B1: anti-LAG3 humanized antibody h6H11B10 (antibody, human IgG4 S228P)
heavy: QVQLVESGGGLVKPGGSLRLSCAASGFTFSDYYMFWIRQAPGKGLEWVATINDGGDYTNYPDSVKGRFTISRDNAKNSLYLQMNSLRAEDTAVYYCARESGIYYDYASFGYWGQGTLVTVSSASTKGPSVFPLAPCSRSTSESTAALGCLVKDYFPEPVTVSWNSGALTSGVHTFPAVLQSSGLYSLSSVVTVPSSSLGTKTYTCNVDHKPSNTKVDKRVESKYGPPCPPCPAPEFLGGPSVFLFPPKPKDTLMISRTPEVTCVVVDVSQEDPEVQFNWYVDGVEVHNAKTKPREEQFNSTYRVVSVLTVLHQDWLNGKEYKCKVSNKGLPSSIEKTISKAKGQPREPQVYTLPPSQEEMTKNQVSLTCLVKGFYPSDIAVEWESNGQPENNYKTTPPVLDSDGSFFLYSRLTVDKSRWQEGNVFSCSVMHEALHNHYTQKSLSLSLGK
light: DIVMTQSPLSLSVTPGEPASISCRSSKSLLYSNGITYLYWYLQKPGQSPQLLIYQMSNLASGVPDRFSGSGSGTDFTLKISRVEAEDVGVYYCAQNLELPWTFGGGTKLEIKRNLAAPSVFIFPPSDEQLKSGTASVVCLLNNFYPREAKVQWKVDNALQSGNSQESVTEQDSKDSTYSLSSTLTLSKADYEKHKVYACEVTHQGLSSPVTKSFNRGEC
notes: Expressed in CHO-S cells
binding result [1]: binds
EC50 (read off the curve) [2]: ~0.3 µg/mL
EC50 (read off the curve) [3]: ~0.3 µg/mL

B2: anti-LAG3 humanized antibody h6H11B10#40 (antibody, human IgG4 S228P)
heavy: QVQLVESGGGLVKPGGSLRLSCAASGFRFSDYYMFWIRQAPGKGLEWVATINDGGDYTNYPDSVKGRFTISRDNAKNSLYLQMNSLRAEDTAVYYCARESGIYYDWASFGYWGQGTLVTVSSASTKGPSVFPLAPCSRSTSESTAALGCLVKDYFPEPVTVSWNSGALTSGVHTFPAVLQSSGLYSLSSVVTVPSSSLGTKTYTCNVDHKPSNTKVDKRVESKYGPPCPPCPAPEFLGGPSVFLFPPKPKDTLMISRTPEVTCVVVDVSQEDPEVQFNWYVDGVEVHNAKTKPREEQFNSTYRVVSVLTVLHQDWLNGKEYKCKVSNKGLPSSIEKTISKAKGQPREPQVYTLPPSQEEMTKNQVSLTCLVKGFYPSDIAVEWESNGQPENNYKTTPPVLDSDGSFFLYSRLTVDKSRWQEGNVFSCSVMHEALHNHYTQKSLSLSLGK
light: DIVMTQSPLSLSVTPGEPASISCRSSKSLKYSNGITYLYWYLQKPGQSPQLLIYQMSNLASGVPDRFSGSGSGTDFTLKISRVEAEDVGVYYCAQNLELPWTFGGGTKLEIKRNLAAPSVFIFPPSDEQLKSGTASVVCLLNNFYPREAKVQWKVDNALQSGNSQESVTEQDSKDSTYSLSSTLTLSKADYEKHKVYACEVTHQGLSSPVTKSFNRGEC
notes: Expressed in CHO-S cells
EC50 (read off the curve) [4]: ~0.01 µg/mL
Kd [5]: 1420 pM
koff [5]: 3.09e-05 s⁻¹
kon [5]: 21700 M⁻¹ s⁻¹
Kd [6]: 313 pM
koff [6]: 1.37e-05 s⁻¹
kon [6]: 43500 M⁻¹ s⁻¹
EC50 (read off the curve) [2]: ~0.2 µg/mL
IC50 (read off the curve) [7]: ~2 µg/mL
EC50 (read off the curve) [3]: ~0.4 µg/mL
IC50 (read off the curve) [8]: ~0.5 µg/mL
IC50 (read off the curve) [9]: ~1 µg/mL

B3: anti-LAG3 murine antibody 6H11B10 (antibody, V domains shown)
VH: EVQVVESGGGLVKPGGSLKLSCAASGFTFSDYYMFWVRQTPEERLEWVATINDGGDYTNYPDSVKGRFTISRDNDKNKLYLQMNSLKSEDTAMYYCARESGIYYDYASFGYWGQGTLVTVSS
VL: DIVMTQAAFSNPVTLGTSASISCRSSKSLLYSNGITYLYWYLQKPGQSPQLLIYQMSNLASGVPDRFSSSGSGTDFTLRISRVEAEDVGVYYCAQNLELPWTFGGGTKLEIKRNL
notes: also called m6H11B10; monoclonal hybridoma cell line 6H11B10
binding result [10]: binds

B4: anti-LAG3 chimeric antibody c6H11B10 (antibody, human IgG4 S228P, V domains shown)
VH: EVQVVESGGGLVKPGGSLKLSCAASGFTFSDYYMFWVRQTPEERLEWVATINDGGDYTNYPDSVKGRFTISRDNDKNKLYLQMNSLKSEDTAMYYCARESGIYYDYASFGYWGQGTLVTVSS
VL: DIVMTQAAFSNPVTLGTSASISCRSSKSLLYSNGITYLYWYLQKPGQSPQLLIYQMSNLASGVPDRFSSSGSGTDFTLRISRVEAEDVGVYYCAQNLELPWTFGGGTKLEIKR
notes: Expressed in CHO-S cells; also called chimeric antibody protein c6H11B10
binding result [11]: binds
